The target in this series is T1, Eglin C (secreted from E. coli W3110 via the MccV system, positive secretion supernatant).
T1 chain: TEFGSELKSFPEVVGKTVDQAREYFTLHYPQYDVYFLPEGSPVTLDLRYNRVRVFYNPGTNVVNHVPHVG

B1: neutrophil elastase (protein)
chain: IVGGRRARPHAWPFMVSLQLRGGHFCGATLIAPNFVMSAAHCVANVNVRAVRVVLGAHNLSRREPTRQVFAVQRIFENGYDPVNLLNDIVILQLNGSATINANVQVAQLPAQGRRLGNGVQCLAMGWGLLGRNRGIASVLQELNVTVVTSLCRRSNVCTLVRGRQAGVCFGDSGSPLVCNGLIHGIASFVRGGCASGLYPDAFAPVAQFVNWIDSIIQ
On to B1, for which the “neutrophil elastase (NE) activity assay (fluorogenic substrate, RFU over time)” value is reported as “NE activity with Eglin C positive secretion was comparable to positive control, which is NE with purified Eglin C (1.5 µM) while NE activity with Eglin C negative secretion showed a similar level with the sample having only NE”.

Source of the values: patent US20250340892.
